Results taken from patent US20260109763A1 (DENALI THERAPEUTICS, published 2026).

Columns and labels:
[1] = target: T1, human PILRA G78 extracellular domain (recombinant hPILRA ECD) (human, UniProt Q9UKJ1 20-197); test: SPR, Biacore 8K; hPILRA ECD; antibody with wild-type Fc
T1 construct: also called hPILRA G78
Protocol: (§1) Antibodies were captured on Biacore™ Series S CM5 sensor chips immobilized with mouse anti-human Fab (human Fab capture kit from GE Healthcare) followed by injections of serial 3-fold dilutions of recombinant ECD reagents at a flow rate of 30 μL/min. Each sample was analyzed using a 3-minute association followed by a 10-minute dissociation. After each injection, the sensor chip was regenerated using a 5 0 mM glycine pH2.0 regeneration buffer. A 1:1 Languir model of simultaneous fitting of kₒₙ and koff was used for kinetics analysis.
Characterization for binding affinities of the humanized antibodies to hPILRA ECD were measured by SPR using a Biacore 8K instrument (Table 7).

[2] = target: T2, human PILRB extracellular domain (recombinant) (human, UniProt Q9UKJ0 20-191); test: SPR, Biacore 8K, recombinant ECD
T2 construct: also called hPILRB
Protocol: as §1

human PILRA G78 on cells = target: T3, human PILRA G78 on cells (human, UniProt Q9UKJ1 20-303); test: flow cytometry on HEK293 cells expressing hPILRA G78
T3 construct: wild-type iMicroglia are R78/G78 heterozygous (said in the assay field); also called hPILRA; hPILRA G78
T3 sequence (Q9UKJ1 20-303 R78G limits assumed): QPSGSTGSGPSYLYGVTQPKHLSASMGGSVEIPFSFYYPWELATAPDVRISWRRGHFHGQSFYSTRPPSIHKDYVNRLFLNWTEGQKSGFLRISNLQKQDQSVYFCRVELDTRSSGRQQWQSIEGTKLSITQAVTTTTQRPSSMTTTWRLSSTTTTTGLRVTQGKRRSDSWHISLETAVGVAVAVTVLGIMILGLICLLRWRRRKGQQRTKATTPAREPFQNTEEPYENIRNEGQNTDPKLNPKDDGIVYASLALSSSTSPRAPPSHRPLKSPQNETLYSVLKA
Protocol: Parental HEK293 cells were labeled with NucBlue Live ReadyProbes Reagent for 30 mins. […] Antibody binding to the cells was detected by FACS and median fluorescence intensity (MFI) was derived from data analysis performed with the FLOJO software (FIGS. 1A-1C).

[3] = target: T1, human PILRA G78 extracellular domain …; test: SPR, Biacore 8K; antibody captured via anti-human Fab, recombinant ECD injected; 1:1 fit;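 further: CM5 sensor chip, ECD analyte in threefold dilution series at 30 µL/min, 3 min association and 10 min dissociation, kon and koff fitted simultaneously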
Protocol: as §1

[4] = target: T4, cynomolgus monkey PILRA extracellular domain (recombinant) (cynomolgus monkey); test: as above
T4 construct: also called cynoPILRA; Cyno PILRA
T4 sequence (chain, as listed by the source limits assumed): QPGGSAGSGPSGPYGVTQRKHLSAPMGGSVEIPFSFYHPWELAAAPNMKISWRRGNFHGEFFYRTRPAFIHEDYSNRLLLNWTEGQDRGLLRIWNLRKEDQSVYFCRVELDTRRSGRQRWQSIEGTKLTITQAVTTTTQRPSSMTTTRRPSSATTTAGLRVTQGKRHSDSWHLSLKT
Protocol: as §1

T1 sequence (Q9UKJ1 20-197 R78G limits assumed): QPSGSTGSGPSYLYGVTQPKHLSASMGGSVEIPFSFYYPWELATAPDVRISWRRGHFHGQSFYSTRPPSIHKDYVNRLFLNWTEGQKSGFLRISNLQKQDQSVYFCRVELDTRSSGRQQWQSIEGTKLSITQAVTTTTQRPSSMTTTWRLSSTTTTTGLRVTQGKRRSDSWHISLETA
T2 sequence (Q9UKJ0 20-191 limits assumed): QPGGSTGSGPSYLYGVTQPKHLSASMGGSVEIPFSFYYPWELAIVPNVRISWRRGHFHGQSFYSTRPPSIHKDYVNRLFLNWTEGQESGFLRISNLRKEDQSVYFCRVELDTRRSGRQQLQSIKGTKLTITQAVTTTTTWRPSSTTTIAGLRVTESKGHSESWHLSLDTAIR

Row | Kd [1] [nM] | Binder | further results
1 | 1.28 | Anti-PILRA antibody clone 29 (antibody, V domains shown, Humanized) VH: EVQLVQSGAEVKKPGASVKVSCKASGYTFTEYYMYWVRQAPGQGLELIGRIDPEDGGTDYIEKFKNRSTLTADTSTSTAYLELSSLRSEDTAVYFCATTIRGTVFAFWGQGTLVTVSS VL: DIQMTQSPSSLSASVGDRVTITCRASEDIFNGLAWYQQKPGKSPKLLIYNAKTLHTGVPSRFSGSGSGTDYTLTISSLQPEDFATYYCQQYYDYPLTFGQGTKVEIK | 
2 | 0.878 | Anti-PILRA antibody clone 30 (antibody, V domains shown, Humanized) VH: EVQLVQSGAEVKKPGASVKVSCKASGYTFTEYYMYWVRQAPGQGLELIGRIDPEDGGTDYVEKFKNRVTLTADTSTSTAYLELSSLRSEDTAVYYCASTIRGTVFVYWGQGTLVTVSS VL: DIQMTQSPSSLSASVGDRVTITCRASEDIFNGLAWYQQKPGKSPKLLIYNAKTLHTGVPSRFSGSGSGTDYTLTISSLQPEDFATYYCQQYYDYPLTFGQGTKVEIK | 
3 | 1.8 | Anti-PILRA antibody clone 34 (antibody, V domains shown, Humanized) VH: EVQLVQSGAEVKKPGASVKVSCKASGYTFTEYYMYWVRQAPGQGLELIGRIDPEDGGTDYVEKFKNRVTLTADTSTSTAYLELSSLRSEDTAVYYCASTIRGTVFVYWGQGTLVTVSS VL: DIQMTQSPSSLSASVGDRVTITCRPSEDIYNGLAWYQQKPGKSPKLLIYNANSLHTGVPSRFSGSGSGTDYTLTISSLQPEDFATYFCQQYYDYPLTFGQGTKVEIK | 
4 | 2.04 | Anti-PILRA antibody clone 33 (antibody, V domains shown, Humanized) VH: EVQLVQSGAEVKKPGASVKVSCKASGYTFTEYYMYWVRQAPGQGLELIGRIDPEDGGTDYIEKFKNRSTLTADTSTSTAYLELSSLRSEDTAVYFCATTIRGTVFAFWGQGTLVTVSS VL: DIQMTQSPSSLSASVGDRVTITCRPSEDIYNGLAWYQQKPGKSPKLLIYNANSLHTGVPSRFSGSGSGTDYTLTISSLQPEDFATYFCQQYYDYPLTFGQGTKVEIK | 
5 | 0.915 | Anti-PILRA antibody clone 31 (antibody, V domains shown, Humanized) VH: EVQLVQSGAEVKKPGASVKVSCKASGYTFTEYYMYWVRQAPGQGLELIGRIDPEDGGTDYVEKFKNRATLTADTSTSTAYLELSSLRSEDTAVYFCASTIRGTVFVYWGQGTLVTVSS VL: DIQMTQSPSSLSASVGDRVTITCRASEDIFNGLAWYQQKPGKSPKLLIYNAKTLHTGVPSRFSGSGSGTDYTLTISSLQPEDFATYYCQQYYDYPLTFGQGTKVEIK | 

More lines, now with the values behind:

Row | Binder | Kd [1] [nM] | further results
6 | Anti-PILRA antibody clone 32 (antibody, V domains shown, Humanized) VH: EVQLVQSGAEVKKPGASVKVSCKASGYTFTEYYMYWVRQAPGQGLELIGRIDPEDGGTDYIEKFKNRVTLTADTSTSTAYLELSSLRSEDTAVYYCATTIRGTVFAFWGQGTLVTVSS VL: DIQMTQSPSSLSASVGDRVTITCRPSEDIYNGLAWYQQKPGKSPKLLIYNANSLHTGVPSRFSGSGSGTDYTLTISSLQPEDFATYFCQQYYDYPLTFGQGTKVEIK | 2.8 | 
7 | Anti-PILRA antibody clone 17 (antibody, V domains shown, Humanized) VH: EVQLVQSGAEVKKPGASVKVSCKASGYTFTEYYMYWVRQAPGQGLELIGRIDPEDGGTDYVEKFKNRVTLTADTSTSTAYLELSSLRSEDTAVYYCASTIRGTVFVYWGQGTLVTVSS VL: DIQMTQSPSSLSASVGDRVTITCRASEDIFNGLAWYQQKPGKSPKLLIYNAKTLHTGVPSRFSGSGSGSDYTLTISSLQPEDFATYFCQQYYDYPLTFGQGTKVEIK | 1.29 | 
8 | Anti-PILRA antibody clone 19 (antibody, V domains shown, Humanized) VH: EVQLVQSGAEVKKPGASVKVSCKASGYTFTEYYMYWVRQAPGQGLELIGRIDPEDGGTDYVEKFKNRATLTADTSTSTAYLELSSLRSEDTAVYFCASTIRGTVFVYWGQGTLVTVSS VL: DIQMTQSPSSLSASVGDRVTITCRASEDIFNGLAWYQQKPGKSPKLLIYNAKTLHTGVPSRFSGSGSGSDYTLTISSLQPEDFATYFCQQYYDYPLTFGQGTKVEIK | 2 | 
9 | Anti-PILRA antibody clone 14 (antibody, V domains shown, Humanized) VH: EVQLVQSGAEVKKPGASVKVSCKASGYTFTEYYMYWVRQAPGQGLELIGRIDPEDGGTDYIEKFKNRVTITADTSTSTAYLELSSLRSEDTAVYFCATTIRGTVFAFWGQGTLVTVSS VL: DIQMTQSPSSLSASVGDRVTITCRASEDIFNGLAWYQQKPGKSPKLLIYNAKTLHTGVPSRFSGSGSGSDYTLTISSLQPEDFATYFCQQYYDYPLTFGQGTKVEIK | 1.63 | 
10 | Anti-PILRA antibody clone 27 (antibody, V domains shown, Humanized) VH: EVQLVQSGAEVKKPGASVKVSCKASGYTFTEYYMYWVRQAPGQGLELIGRIDPEDGGTDYVEKFKNRATLTADTSTSTAYLELSSLRSEDTAVYFCASTIRGTVFVYWGQGTLVTVSS VL: DIQMTQSPSSLSASVGDRVTITCRPSEDIYNGLAWYQQKPGKAPKLLIYNANSLHTGVPSRFSGSGSGTDYTLTISSLQPEDFATYFCQQYYDYPLTFGQGTKVEIK | 0.536 | 
11 | Anti-PILRA antibody clone 22 (antibody, V domains shown, Humanized) VH: EVQLVQSGAEVKKPGASVKVSCKASGYTFTEYYMYWVRQAPGQGLELIGRIDPEDGGTDYVEKFKNRVTLTADTSTSTAYLELSSLRSEDTAVYYCASTIRGTVFVYWGQGTLVTVSS VL: DIQMTQSPSSLSASVGDRVTITCRPSEDIYNGLAWYQQKPGKAPKLLIYNANSLHTGVPSRFSGSGSGTDYTLTISSLQPEDFATYYCQQYYDYPLTFGQGTKVEIK | 0.515 | 
12 | Anti-PILRA antibody clone 13 (antibody, V domains shown, Humanized) VH: EVQLVQSGAEVKKPGASVKVSCKASGYTFTEYYMYWVRQAPGQGLELIGRIDPEDGGTDYIEKFKNRVTLTADTSTSTAYLELSSLRSEDTAVYYCATTIRGTVFAFWGQGTLVTVSS VL: DIQMTQSPSSLSASVGDRVTITCRASEDIFNGLAWYQQKPGKSPKLLIYNAKTLHTGVPSRFSGSGSGSDYTLTISSLQPEDFATYFCQQYYDYPLTFGQGTKVEIK | 0.655 | 
13 | Anti-PILRA antibody clone 26 (antibody, V domains shown, Humanized) VH: EVQLVQSGAEVKKPGASVKVSCKASGYTFTEYYMYWVRQAPGQGLELIGRIDPEDGGTDYVEKFKNRVTLTADTSTSTAYLELSSLRSEDTAVYYCASTIRGTVFVYWGQGTLVTVSS VL: DIQMTQSPSSLSASVGDRVTITCRPSEDIYNGLAWYQQKPGKAPKLLIYNANSLHTGVPSRFSGSGSGTDYTLTISSLQPEDFATYFCQQYYDYPLTFGQGTKVEIK | 0.511 | 
14 | Anti-PILRA antibody clone 16 (antibody, V domains shown, Humanized) VH: EVQLVQSGAEVKKPGASVKVSCKASGYTFTEYYMYWVRQAPGQGLELIGRIDPEDGGTDYVEKFKNRATITADTSTSTAYLELSSLRSEDTAVYYCASTIRGTVFVYWGQGTLVTVSS VL: DIQMTQSPSSLSASVGDRVTITCRASEDIFNGLAWYQQKPGKSPKLLIYNAKTLHTGVPSRFSGSGSGSDYTLTISSLQPEDFATYFCQQYYDYPLTFGQGTKVEIK | 11 | 
15 | Anti-PILRA antibody clone 21 (antibody, V domains shown, Humanized) VH: EVQLVQSGAEVKKPGASVKVSCKASGYTFTEYYMYWVRQAPGQGLELIGRIDPEDGGTDYIEKFKNRSTLTADTSTSTAYLELSSLRSEDTAVYFCATTIRGTVFAFWGQGTLVTVSS VL: DIQMTQSPSSLSASVGDRVTITCRPSEDIYNGLAWYQQKPGKAPKLLIYNANSLHTGVPSRFSGSGSGTDYTLTISSLQPEDFATYYCQQYYDYPLTFGQGTKVEIK | 0.667 | 
16 | Anti-PILRA antibody clone 18 (antibody, V domains shown, Humanized) VH: EVQLVQSGAEVKKPGASVKVSCKASGYTFTEYYMYWVRQAPGQGLELIGRIDPEDGGTDYVEKFKNRVTITADTSTSTAYLELSSLRSEDTAVYFCASTIRGTVFVYWGQGTLVTVSS VL: DIQMTQSPSSLSASVGDRVTITCRASEDIFNGLAWYQQKPGKSPKLLIYNAKTLHTGVPSRFSGSGSGSDYTLTISSLQPEDFATYFCQQYYDYPLTFGQGTKVEIK | 7.53 | 
17 | Anti-PILRA antibody clone 20 (antibody, V domains shown, Humanized) VH: EVQLVQSGAEVKKPGASVKVSCKASGYTFTEYYMYWVRQAPGQGLELIGRIDPEDGGTDYIEKFKNRVTLTADTSTSTAYLELSSLRSEDTAVYYCATTIRGTVFAFWGQGTLVTVSS VL: DIQMTQSPSSLSASVGDRVTITCRPSEDIYNGLAWYQQKPGKAPKLLIYNANSLHTGVPSRFSGSGSGTDYTLTISSLQPEDFATYYCQQYYDYPLTFGQGTKVEIK | 1.73 | 
18 | Anti-PILRA antibody clone 25 (antibody, V domains shown, Humanized) VH: EVQLVQSGAEVKKPGASVKVSCKASGYTFTEYYMYWVRQAPGQGLELIGRIDPEDGGTDYIEKFKNRSTLTADTSTSTAYLELSSLRSEDTAVYFCATTIRGTVFAFWGQGTLVTVSS VL: DIQMTQSPSSLSASVGDRVTITCRPSEDIYNGLAWYQQKPGKAPKLLIYNANSLHTGVPSRFSGSGSGTDYTLTISSLQPEDFATYFCQQYYDYPLTFGQGTKVEIK | 0.794 | 
19 | Anti-PILRA antibody clone 3 (antibody, V domains shown) VH: EVQLVESGGGLVQPGRSLRLSCAASGFTFDDYAIHWVRQAPGKGLEWVSGMSWNSGSIGYGDSVKGRFTISRDNAKNSLYLQMNSLRAEDTAFYYCAKDKSIGAAGRFDCWGQGTLVTVSS VL: not shown |  | binding result [2]: no binding; EC50 (human PILRA G78 on cells): 14.1 nM; Kd [3]: 1.7 nM; Kd [4]: 3 nM
20 | Anti-PILRA antibody clone 8 (antibody, V domains shown) VH: QVQLVQSGAEVKKPGASVKVSCKASGYTFTGHYMHWVRQAPGQGLEWMGWINPNSGDTDYAQKFQGRVTMTRDTSISTAYMDLNRLRSDDTAVFYCAREGLDGDPFDYWGQGTLVTVSS VL: EIMLTQTPLSSPVTLGQPASISCRSSQSLVHSDGNTYLSWLQQRPGQPPRLLIYNISNRFSGVPDRFSGRGAGTDFTLKISRVEAEDVGVYYCIQTTQFSTFGQGTKLEIK |  | binding result [2]: no binding; EC50 (human PILRA G78 on cells): 536 nM; Kd [3]: 11 nM; Kd [4]: 59 nM
